# Laboratory results reported in PMC3903617 (PLoS ONE, 2014).
# Residue numbers refer to the chain shown, from its start. In names and notes the source's numbering stands.
# B1: wild-type 11K2 scFv (scFv, V domains shown)
# VH: EVQLQQSGAELVKAGASVKLSCPASGLNIKDTYMHWVKQRPEQGLEWIGRIDPANGNTKFDPKFQGKATITADTSSNTAYLQLSSLTSEDTAVYYCARGVFGFFDYWGQGTTLTVSS
# VL: DIQMTQSSSSFSVSLGDRVTITCKATEDIYNRLAWYQQKPGSAPRLLISGATSLETGVPSRFSGSGSGKDYTLSITSLQTEDVATYYCQQFWSAPYTFGGGTKLEIK
# notes: VH of antibody 11K2; also the variable domain of the heavy chain of the 11K2 Fab in PDB 2BDN; linker of the scFv; VL of antibody 11K2; also the variable domain of the light chain of the 11K2 Fab in PDB 2BDN; also called WT; scFv 11K2
# B2: 11K2 scFv mutein H-N28Q (scFv, V domains shown)
# VH: B1 VH with N28Q
# VL: B1 VL
# notes: PDB 2BDN heavy chain) with the stated change; PDB 2BDN light chain)
# B3: 11K2 scFv mutein H-D31E (scFv, V domains shown)
# VH: B1 VH with D31E
# VL: B1 VL
# notes: as for B2
# B4: 11K2 scFv mutein L-Y30K (scFv, V domains shown)
# VH: B1 VH
# VL: B1 VL with Y30K
# notes: PDB 2BDN heavy chain; PDB 2BDN light chain) with the stated change
# B5: 11K2 scFv mutein L-N31R (scFv, V domains shown)
# VH: B1 VH
# VL: B1 VL with N31R
# notes: PDB 2BDN heavy chain; PDB 2BDN light chain) with the stated change; also called L-D31R (printed once in the results)
# B6: 11K2 scFv mutein L-N31K (scFv, V domains shown)
# VH: B1 VH
# VL: B1 VL with N31K
# notes: PDB 2BDN heavy chain; PDB 2BDN light chain) with the stated change; also called L-D31K (printed once in the results)
# B7: 11K2 scFv mutein L-S53D (scFv, V domains shown)
# VH: B1 VH
# VL: B1 VL with S53D
# notes: as for B4
# B8: 11K2 scFv mutein L-S53E (scFv, V domains shown)
# VH: B1 VH
# VL: B1 VL with S53E
# notes: as for B4
# B9: 11K2 scFv mutein L-T56D (scFv, V domains shown)
# VH: B1 VH
# VL: B1 VL with T56D
# notes: as for B4
# B10: 11K2 scFv mutein L-T56E (scFv, V domains shown)
# VH: B1 VH
# VL: B1 VL with T56E
# notes: as for B4
# B11: 11K2 scFv mutein H-L27R (scFv, V domains shown)
# VH: B1 VH with L27R
# VL: B1 VL
# notes: as for B2
# B12: 11K2 scFv mutein H-L27K (scFv, V domains shown)
# VH: B1 VH with L27K
# VL: B1 VL
# notes: as for B2
# Target: T1, monocyte chemo-attractant protein-1 (MCP-1) (Homo sapiens (Human)., UniProt P13500)
# T1 construct: MCP-1 (monocyte chemo-attractant protein-1), chemokine; synthetic gene optimised for E. coli in pET26b; Probably the mature human chemokine, as in PDB 2BDN; also called monocyte chemotactic protein-1; antigen; source: E. coli Rosetta2 (DE3), purified (Ni-NTA, SEC)
# Test: SPR; Biacore T200; MCP-1 immobilised on a CM5 chip by amine coupling (~220 RU), scFv injected at 30 µl/min; PBS with 0.005% Tween-20; 25°C; global fit, 1:1 Langmuir model; KD from koff/kon
# Details: both partners purified
Binder,Kd,koff,kon
B1,0.8 nM,0.0001 s⁻¹,140000 M⁻¹ s⁻¹
B2,8.5 nM,0.0019 s⁻¹,220000 M⁻¹ s⁻¹
B3,5 nM,0.00015 s⁻¹,30000 M⁻¹ s⁻¹
B4,2.5 nM,0.00031 s⁻¹,130000 M⁻¹ s⁻¹
B5,0.17 nM,2.2e-05 s⁻¹,130000 M⁻¹ s⁻¹
B6,290 nM,0.098 s⁻¹,340000 M⁻¹ s⁻¹
B7,0.61 nM,5.5e-05 s⁻¹,90000 M⁻¹ s⁻¹
B8,0.19 nM,1.4e-05 s⁻¹,73000 M⁻¹ s⁻¹
B9,0.39 nM,8.6e-05 s⁻¹,220000 M⁻¹ s⁻¹
B10,0.25 nM,2.6e-05 s⁻¹,100000 M⁻¹ s⁻¹
B11,2.4 nM,0.00033 s⁻¹,140000 M⁻¹ s⁻¹
B12,3.5 nM,0.00039 s⁻¹,110000 M⁻¹ s⁻¹

# Target: T1, monocyte chemo-attractant protein-1 …
# Test: SPR; ionic strength series: MCP-1 immobilised, scFv injected; running buffer with 137 mM NaCl; 25°C
# Details: both partners purified
Binder,Kd,kon
B5,0.36 nM,170000 M⁻¹ s⁻¹

# Target: T1, monocyte chemo-attractant protein-1 …
# Test: SPR; temperature dependence of KD, van't Hoff approximation; MCP-1 immobilised, scFv injected
# Details: both partners purified
row,Binder,dH
1,B1,-7.3 kcal/mol
2,B5,-25.6 kcal/mol
3,B7,-13.3 kcal/mol
4,B8,-15.1 kcal/mol
5,B9,-11.7 kcal/mol
6,B10,-14.5 kcal/mol

# Target: T1, monocyte chemo-attractant protein-1 …
# Test: SPR; ionic strength series: MCP-1 immobilised, scFv injected; running buffer with 500 mM NaCl; 25°C
# Details: both partners purified
row,Binder,Kd
1,B5,0.47 nM
